From the supplement of paper PMC12764529
± gives the half width of the 95% confidence interval.

Tests used:
[1] = folding stability dG unfold from trypsin proteolysis; higher = more stable
Outline: (§1)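 Only designs with AlphaFold2 dimer inter-PAE above 15 were retained; each was a mini-protein under 80 residues with no cysteine, in a PA-tagged cDNA display construct. After digestion with trypsin and chymotrypsin and sequencing, K50 was inferred by Bayesian fitting of counts, and unfolding free energy was derived per protease or combined against a sequence-predicted unfolded-state K50 and a shared folded-state K50.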

[2] = folding stability dG unfold from chymotrypsin proteolysis; higher = more stable
Outline: as §1

[3] = folding stability dG unfold (combined trypsin and chymotrypsin); higher = more stable
Outline: as §1

Sequence	folding stability dG unfold [1]	folding stability dG unfold [2]	folding stability dG unfold [3]
SKGKKYELIVLLFKVEDPEKYPVEKKVSVPKEFIDFLKKKGFKIIEIKTRVIPSSDGSVYVEHVALVEVDSA [r9_465_TrMRF]	2.62 ± 0.12 kcal/mol	4.16 ± 0.13 kcal/mol	3.82 ± 0.13 kcal/mol
SAGGRIEIDPNSMQIKIYDAEDGEKVEIPINMPPGQIKEIELDPDGKISIRMPMWGQTQELPADDIKSAGGS [r16_410_TrROS]	-0.206 ± 0.061 kcal/mol	1.22 ± 0.023 kcal/mol	0.793 ± 0.16 kcal/mol
SAGGSAGGSADDGDPNKQEPKPEVKVRPIEIRMSFAYYPPNGEPWMFSIEIRIWVYDGGLVSAGGSAGGSAG [r3_380_TrROS]	3.85 ± 0.1 kcal/mol	5.61 ± 0.095 kcal/mol	5.34 ± 0.16 kcal/mol
SAGGSAGGMPPELSEEEVVRRAVERAVRELGVPLEELPPDWRVDARVERVGDEWLVEVDIELPASAGGSAGG [r6_740_TrMRF]	1.33 ± 0.037 kcal/mol	1.68 ± 0.074 kcal/mol	1.57 ± 0.083 kcal/mol
KIHILPPGEPAKDPNGKTYEFPNMRIHRNPKNGKPTIYIPMDPEARDQGNPEALQWLRELVEELNIDKVEPS [r1_438_TrROS]	-0.623 ± 0.45 kcal/mol	0.0516 ± 0.16 kcal/mol	-0.156 ± 0.16 kcal/mol
SALPPEVVRKLALDALRALYPDEPFVPVSMEVDPETGEVTVLVARPGPDDSLRLVRRTFRVLDDGRVLGSAG [r14_183_TrMRF]	2.8 ± 0.067 kcal/mol	3.07 ± 0.071 kcal/mol	2.98 ± 0.062 kcal/mol
SAEEPSLEELLAAIEEEAEARAREFLERHPDVPPGAVLKVPVTLTYPLRLGDVEYPVTFEAEVDVVVPASAG [r14_486_TrMRF]	1.74 ± 0.041 kcal/mol	2.01 ± 0.086 kcal/mol	1.95 ± 0.1 kcal/mol
SAGGSAGGSAGGMVIVTFPDGSVREVEVLETEPDGTVVVAPPDRPVETLSGAGLTLTPVPSAGGSAGGSAGG [r7_823_JUSTAS]	1.19 ± 0.071 kcal/mol	-0.524 ± 0.13 kcal/mol	0.59 ± 0.07 kcal/mol
SAFRDLAKEIARDAGYPVELVEIEFTNDTWTFMIQMKNDGEPYYFRIEIEWPNPNPGDWRIEIDDVQPPSAG [r14_387_TrROS]	1.94 ± 0.14 kcal/mol	3.09 ± 0.094 kcal/mol	2.78 ± 0.28 kcal/mol
SAGSSVSVSYDPNNPDKMTITITDPANGTQVSAVTAPVYKRPDGTIVVPLTITFPASGKVTTKTFTIPASAG [r5_610_JUSTAS]	1.22 ± 0.019 kcal/mol	1.13 ± 0.09 kcal/mol	1.22 ± 0.059 kcal/mol
SAGSPSMVVTVRLTVTTTDPVTGTTTTTTLDIPVSPASLSTPPAQVAAALTAAAPATTIDVTVDSVLLSAGG [r19_189_JUSTAS]	1.794 ± 0.017 kcal/mol	1.06 ± 0.06 kcal/mol	1.51 ± 0.037 kcal/mol
SAGGGSSMPVPVRVAEFNVPDSRPEELIERAKELLEADEIDVLVVPSPAAQEALKAAFPDFPVPVLVRSAGG [r13_353_JUSTAS]	-0.646 ± 0.085 kcal/mol	-0.339 ± 0.17 kcal/mol	-0.459 ± 0.11 kcal/mol
GFDEAELKKLLEEKAAELEKKGYKVLKTSIEPVPDGTYGGKIGNKTITHPTPNGLTYSVSVYYEKVSPKKKS [r1_31_JUSTAS]	0.232 ± 0.13 kcal/mol	0.331 ± 0.25 kcal/mol	0.351 ± 0.16 kcal/mol
SAGGSAGGSSTLTLTVRVEVTVEVDGKTYTFTAELTLTVELPPLPEEDLKLYRTDDGELRLVRSAGGSAGGS [r12_1031_TrROS_Hall]	2.94 ± 0.21 kcal/mol	2.91 ± 0.24 kcal/mol	2.88 ± 0.47 kcal/mol
MKVIEVPIEGLPVEEIRRVIEEAIEKAKAEGNPDVKIIVTVPGPPELVEATTAVVKEIADKGDVEVSVVALS [r1_387_JUSTAS]	3.83 ± 0.36 kcal/mol	2.82 ± 0.17 kcal/mol	3.52 ± 0.29 kcal/mol
SAGGSAGGSAGGKPEIKLVEVENEDGSKLIKIEVNGKTIIIENVKTEEELRELLKKLGIESAGGSAGGSAGG [r7_91_TrROS_Hall]	2.08 ± 0.14 kcal/mol	2.66 ± 0.17 kcal/mol	2.64 ± 0.25 kcal/mol
SAGPIKIVVNPDGMLIMVFPHPDGSLMVMIFTFKPNPKNGKRRFEMEMIMIDPDPGDPHVMTMRFEIPPSAG [r5_424_TrROS]	3.37 ± 0.15 kcal/mol	4.88 ± 0.09 kcal/mol	4.08 ± 0.18 kcal/mol
SAGGSAGGWYVRITTNNGNQISIHLEELGLPEESFKEMTEEDLAEYLSKLFPGRPIKIEPVPLPSAGGSAGG [r6_165_TrROS]	3.07 ± 0.14 kcal/mol	3.35 ± 0.11 kcal/mol	3.14 ± 0.14 kcal/mol
SAGGSAGGGLDPVPIKRVTVLRNPETDEYVVLIENEDGLPYAFPFDSLEDAERFVRRLVEEGYLSAGGSAGG [r6_65_TrMRF]	4.76 ± 0.09 kcal/mol	5.01 ± 0.061 kcal/mol	4.967 ± 0.047 kcal/mol
SMEVYTEETEEKSPTPLRRRTTTTTVVTRDGSRTVVTVETRVELEPVPPVPPRPLPPIYTPENREVNILLSA [r9_965_JUSTAS]	1.54 ± 0.17 kcal/mol	0.51 ± 0.81 kcal/mol	1.38 ± 0.73 kcal/mol
SAGGMKVATVTLLTRDPSSDRTFEVTVEVPDDIVEKGDIEEAIARAKQLAEERGYPILEVEVEVKEPPSAGG [r13_954_JUSTAS]	1.13 ± 0.046 kcal/mol	0.625 ± 0.12 kcal/mol	0.922 ± 0.12 kcal/mol

Sequence	folding stability dG unfold [1]	folding stability dG unfold [2]	folding stability dG unfold [3]
SAGGSAGGSPSVVTLVSPDYYAEAFYFPDFVLVVLYDPEKGPPQVFLVSNENGELKFFPASEASAGGSAGGS [r12_632_TrMRF]	2.28 ± 0.18 kcal/mol	3.24 ± 0.059 kcal/mol	2.85 ± 0.18 kcal/mol
SIFRIRMPGNREFRIFIPPDGMVNVSMPNGKKHTHPFKDKEDAKEIADVLSKHFPNMPVEIEPIPPDDIKSA [r9_1206_TrROS]	1.26 ± 0.11 kcal/mol	0.166 ± 0.91 kcal/mol	0.793 ± 0.37 kcal/mol
SAGGSAGGSGSLRLRVRSPEQALEWLRRVLPPDFDLTPEELEELVRFLLATSEVTPDGYLLLRSAGGSAGGS [r12_983_TrMRF]	1.826 ± 0.018 kcal/mol	2.52 ± 0.051 kcal/mol	2.32 ± 0.042 kcal/mol
SAGGKIIEAIKELLKEGKKLSKEEILKKLKEALRKKAEEEGKPIEEIEITSIHFDKETNEVHIEIKPSAGGS [r16_365_TrROS_Hall]	2.48 ± 0.12 kcal/mol	2.63 ± 0.1 kcal/mol	2.57 ± 0.089 kcal/mol
SAGGSAGGSAGGPVLVKLSVSKPPGDKVIVTLSFYNPETKEVFTITVPLDFLKNIKPLFSAGGSAGGSAGGS [r10_1077_TrMRF]	2.61 ± 0.11 kcal/mol	2.87 ± 0.13 kcal/mol	2.83 ± 0.2 kcal/mol
SAGGPKWVIIIEIEIKPKNNGKEFEFTFVFPPGQTLDEIKSFIKEFAPPGHKVELKIEDIQLVPPDDSAGGS [r16_393_TrROS]	2.2 ± 0.15 kcal/mol	2.41 ± 0.039 kcal/mol	2.4 ± 0.12 kcal/mol
SAGGSAGGSAGGSFTIASVETIRQPNGEILYRITLKFPDGTVEEVLEVPESEAGKVLSSLSAGGSAGGSAGG [r7_891_JUSTAS]	3.23 ± 0.12 kcal/mol	3.333 ± 0.025 kcal/mol	3.3 ± 0.07 kcal/mol
SAGGGKPVNILIKKPNEIKIIPIPVVKIEPLESPDKLYIIFEDGYIMEFDPKTLELLSIEKVKPIEEASAGG [r13_636_TrMRF]	1.35 ± 0.11 kcal/mol	1.94 ± 0.066 kcal/mol	1.69 ± 0.3 kcal/mol
SAGGSAGGEPVKIEWEPIGRDPNGAFKFRLIIRDPDGTVQRTEIWINPNGGMQVETETIPPEDNSAGGSAGG [r6_263_TrROS]	1.92 ± 0.065 kcal/mol	2.15 ± 0.085 kcal/mol	2.13 ± 0.14 kcal/mol
SAGGATAVIADFPLPEGTLRVAVVKKDDKPYVFVFPSGISAEELKKILEEKLGVDIKKVEVKTVSTADESAG [r5_181_TrMRF]	1.11 ± 0.053 kcal/mol	2.04 ± 0.022 kcal/mol	1.7 ± 0.093 kcal/mol
SAGGMPVLEREFTIPLPDGTPLRVTVRYFPGTGRALVTLRPVGTGEPLATVPLSELPPELRAALAEESAGGS [r8_32_TrMRF]	2.42 ± 0.063 kcal/mol	3.102 ± 0.026 kcal/mol	2.9 ± 0.052 kcal/mol
SMKVTVSVTYNPETQTLELRFTVYERDPNGNWVPTASFPITLPVTIPAPPVPVVEVPEDATLPEDVALADSA [r9_888_TrMRF]	3.64 ± 0.18 kcal/mol	5.14 ± 0.21 kcal/mol	4.99 ± 0.33 kcal/mol
SAGGPGMKMEPIAQIEFPGGRKITIHRMEMPNGNKMVNVNIMNPNGKTKTVMVPMGDIDEAIDALKLSAGGS [r16_588_TrROS]	1.65 ± 0.036 kcal/mol	1.04 ± 0.07 kcal/mol	1.29 ± 0.12 kcal/mol
SAGGSAGGEKEYIIKIKLEMPNGREMKHWFPFKTVEQIKDQLRKLPDPNYKIDDVEIMPADELKSAGGSAGG [r6_297_TrROS]	-0.237 ± 0.14 kcal/mol	0.594 ± 0.15 kcal/mol	0.263 ± 0.12 kcal/mol
SAGGSAGLAEAILREAASAGIPLENVRIVDVRAFVTPDAVVFRARIEYRLPNSTSLAYADAVVPAPSAGGSA [r15_863_TrMRF]	1.42 ± 0.026 kcal/mol	1.82 ± 0.086 kcal/mol	1.69 ± 0.073 kcal/mol
SAGGSAGGSAGIEKTKDGVYKITIYNPSTGKKTEIYVPSSAPYVAGPVVLELVKNKAIIESAGGSAGGSAGG [r11_538_TrMRF]	-0.296 ± 0.074 kcal/mol	0.802 ± 0.11 kcal/mol	0.47 ± 0.055 kcal/mol
SAGGSAGGSAGPKIEIEKLPGPYYLLKIYLPDENGNPIEALVVATSPEEAVEKLKELLKSSAGGSAGGSAGG [r11_819_TrMRF]	3.21 ± 0.14 kcal/mol	3.15 ± 0.043 kcal/mol	3.18 ± 0.098 kcal/mol
SKVTIYFPNMPPEEIIDAIRKNPGKPVEIWMMPNNPDRFKNWLQDAKIEVEPQPNPDGQPWVKMEIEVPDSA [r9_1138_TrROS]	0.571 ± 0.035 kcal/mol	0.969 ± 0.095 kcal/mol	0.794 ± 0.078 kcal/mol
SAGGSAGGSAGPWVWIIMIHMEIERVTVEVRPDPDGKWEYKLEITIKIEIHIIPLPPGATSAGGSAGGSAGG [r11_24_TrROS]	3.55 ± 0.15 kcal/mol	5.37 ± 0.11 kcal/mol	5.26 ± 0.17 kcal/mol
SAGGKTVLVPVKSPEEAKIFIENFPESYDKVIVFNPETGTKAVFYIDPKTREVKEVKVEKFDLNDPNASAGG [r13_945_TrMRF]	0.913 ± 0.017 kcal/mol	1.22 ± 0.052 kcal/mol	1.12 ± 0.066 kcal/mol
SEINFKPVKVDKNGNFYVENETKPGLVEKLIEAIKELFPGVEITEIKEIPEPPKIEIKAKHPSGKEFTFGSA [r9_1164_TrMRF]	0.927 ± 0.074 kcal/mol	0.789 ± 0.11 kcal/mol	0.825 ± 0.11 kcal/mol
